B1: CD3 × CD33-BspAb79 (bispecific antibody)
chain 1: QVQLQESGPGLVKPSETLSLTCTVSGGSISSYYWSWIRQPAGKCLEWIGRIYASGSTYYNPSLKSRVTMSVDTSKNQFSLKLSSVTAADTAVYYCAREKRSRLYFDYWGQGTLVTVSSGGGGSGGGGSGGGGSGGGGSNFMLTQPHSVSESPGKTVTISCTRSSGSIASNYVQWYQQRPGSSPTTVIYEDNQRPSGVPDRFSGSIDSSSNSASLTISGLKTEDEGDYYCQSYDRSNRVFGCGTKLTVLDKTHTCPPCPAPEFEGGPSVFLFPPKPKDTLMISRTPEVTCVVVDVSHEDPEVKFNWYVDGVEVHNAKTKPREEQYNSTYRVVSVLTVLHQDWLNGKEYKCKVSNKALPASIEKTISKAKGQPREPQVYTLPPCREEMTKNQVSLWCLVKGFYPSDIAVEWESNGQPENNYKTTPPVLDSDGSFFLYSKLTVDKSRWQQGNVFSCSVMHEALHNHYTQKSLSLSPGK
chain 2: EVQLVQSGAEVKKPGSSVKVSCKASGYTITDSNIHWVRQAPGQSLEWIGYIYPYNGGTDYNQKFKNRATLTVDNPTNTAYMELSSLRSEDTAFYYCVNGNPWLAYWGQGTLVTVSSASTKGPSVFPLAPSSKSTSGGTAALGCLVKDYFPEPVTVSWNSGALTSGVHTFPAVLQSSGLYSLSSVVTVPSSSLGTQTYICNVNHKPSNTKVDKRVEPKSCDKTHTCPPCPAPEFEGGPSVFLFPPKPKDTLMISRTPEVTCVVVDVSHEDPEVKFNWYVDGVEVHNAKTKPREEQYNSTYRVVSVLTVLHQDWLNGKEYKCKVSNKALPASIEKTISKAKGQPREPQVCTLPPSREEMTKNQVSLSCAVKGFYPSDIAVEWESNGQPENNYKTTPPVLDSDGSFFLVSKLTVDKSRWQQGNVFSCSVMHEALHNRFTQKSLSLSPGK
chain 3: DIQLTQSPSTLSASVGDRVTITCRASESLDNYGIRFLTWFQQKPGKAPKLLMYAASNQGSGVPSRFSGSGSGTEFTLTISSLQPDDFATYYCQQTKEVPWSFGQGTKVEVKRTVAAPSVFIFPPSDEQLKSGTASVVCLLNNFYPREAKVQWKVDNALQSGNSQESVTEQDSKDSTYSLSSTLTLSKADYEKHKVYACEVTHQGLSSPVTKSFNRGEC
B2: CD3 × CD33-BspAb83 (bispecific antibody)
chain 1: EVQLVESGGGLVKPGGSLRLSCVASGFTFSRYSMNWVRQAPGKCLEWVSSISSSSRYTYYADSLKGRFIMSRDNAKNSLFLQMNSLRAEDTAVYYCARNLYNALDYWGQGTLVTVSSGGGGSGGGGSGGGGSGGGGSFMLTQPHSVSESPGKTVTISCTRSSGSIASNYVQWYQQRPGSSPTTVIYEDNQRPSGVPDRFSGSIDSSSNSASLTISGLQTEDEADYYCQSYDSSNRVFGCGTKLTVLDKTHTCPPCPAPEFEGGPSVFLFPPKPKDTLMISRTPEVTCVVVDVSHEDPEVKFNWYVDGVEVHNAKTKPREEQYNSTYRVVSVLTVLHQDWLNGKEYKCKVSNKALPASIEKTISKAKGQPREPQVYTLPPCREEMTKNQVSLWCLVKGFYPSDIAVEWESNGQPENNYKTTPPVLDSDGSFFLYSKLTVDKSRWQQGNVFSCSVMHEALHNHYTQKSLSLSPGK
chain 2: B1 chain 2
chain 3: B1 chain 3
B3: CD3 × CD33-BspAb85 (bispecific antibody)
scFv-Fc: EVQLVESGGGLVKPGGSLRLSCAASGFTFSSYSMNWVRQAPGKCLEWVSSISRSSGYIFYADSVKGRFTISRDNAKNSLYLQMNSLRAEDTAVYYCVRERVGAGFDYWGQGTLVTVSSGGGGSGGGGSGGGGSGGGGSNFMLTQPHSVSESPGKTVAISCTRSSGSIASNYVQWYQQRPGSSPTAVIYEDNQRPSGVPDRFSGSIDSSSNSAFLTISGLKTEDEADYYCQSYDSSNRVFGCGTKLTVLGGGGSDKTHTCPPCPAPEFEGGPSVFLFPPKPKDTLMISRTPEVTCVVVDVSHEDPEVKFNWYVDGVEVHNAKTKPREEQYNSTYRVVSVLTVLHQDWLNGKEYKCKVSNKALPASIEKTISKAKGQPREPQVYTLPPCREEMTKNQVSLWCLVKGFYPSDIAVEWESNGQPENNYKTTPPVLDSDGSFFLYSKLTVDKSRWQQGNVFSCSVMHEALHNHYTQKSLSLSPGK
heavy: B1 chain 2
light: B1 chain 3
notes: KiH heterodimer
B4: CD3 × CD33-BspAb80 (bispecific antibody)
chain 1: QVQLQESGPGLVKPSETLSLTCTVSGGSISSYYWSWIRQPAGKCLEWIGRIYTSGSTKYNPSLKSRVTMSVDTSKNQFSLKLISVTAADTAVYFCARERIRDLYFDYWGQGTLVTVSSGGGGSGGGGSGGGGSGGGGSNFMLTQPHSVSESPGKTVTISCTRTSGSIASNYVQWYQQRPGSSPTTVIYEDNQRPSGVPDRFSGSIDSSSNSASLTISGLKTEDEAAYYCQSYDRSNRVFGCGTKLTVLDKTHTCPPCPAPEFEGGPSVFLFPPKPKDTLMISRTPEVTCVVVDVSHEDPEVKFNWYVDGVEVHNAKTKPREEQYNSTYRVVSVLTVLHQDWLNGKEYKCKVSNKALPASIEKTISKAKGQPREPQVYTLPPCREEMTKNQVSLWCLVKGFYPSDIAVEWESNGQPENNYKTTPPVLDSDGSFFLYSKLTVDKSRWQQGNVFSCSVMHEALHNHYTQKSLSLSPGK
chain 2: B1 chain 2
chain 3: B1 chain 3
B5: CD3 × CD33-BspAb82 (bispecific antibody)
chain 1: EVQLVESGGGLVKPGGSLRLSCAASGLTFSTYSMNWVRQAPGKCLEWVSSISSSGSYVYYADSVKGRFTMSRDNAKNSLYLQMNSLRAEDTAVYYCARERRELLFDYWGQGTLVTVSSGGGGSGGGGSGGGGSGGGGSNFMLTQPHSVSESPGKTVTISCTRSSGSIASNYVQWYQQRPGSSPTSVIYEDNQRPSGVPDRFSGSIDSSSNSASLTISGLKTEDEADYYCQSYDRSNRVFGCGTKLTVLDKTHTCPPCPAPEFEGGPSVFLFPPKPKDTLMISRTPEVTCVVVDVSHEDPEVKFNWYVDGVEVHNAKTKPREEQYNSTYRVVSVLTVLHQDWLNGKEYKCKVSNKALPASIEKTISKAKGQPREPQVYTLPPCREEMTKNQVSLWCLVKGFYPSDIAVEWESNGQPENNYKTTPPVLDSDGSFFLYSKLTVDKSRWQQGNVFSCSVMHEALHNHYTQKSLSLSPGK
chain 2: B1 chain 2
chain 3: B1 chain 3
B6: CD3 × CD33-BspAb81 (bispecific antibody)
chain 1: QVQLQESGPGLVKPSQTLSLTCTVSGGSISSGGYYWSWIRQHPGKCLEWIGYIYYSGSTYYNPSLKSRVTISVDTSKDQFSLKLSSVTAADTAVYYCARERKTSLPFDIWGQGTMVTVSSGGGGSGGGGSGGGGSGGGGSNFMLTQPHSVSESPGKTVTISCTRSSGSIASNYVQWYQQRPGSSPTTVIYEDNQRPSGVPDRFSGSIDSSSNSASLTISGLKTEDEAYYYCQSFDSSNRVFGCGTKLTVLDKTHTCPPCPAPEFEGGPSVFLFPPKPKDTLMISRTPEVTCVVVDVSHEDPEVKFNWYVDGVEVHNAKTKPREEQYNSTYRVVSVLTVLHQDWLNGKEYKCKVSNKALPASIEKTISKAKGQPREPQVYTLPPCREEMTKNQVSLWCLVKGFYPSDIAVEWESNGQPENNYKTTPPVLDSDGSFFLYSKLTVDKSRWQQGNVFSCSVMHEALHNHYTQKSLSLSPGK
chain 2: B1 chain 2
chain 3: B1 chain 3
B7: CD3 × CD33-BspAb84 (bispecific antibody)
scFv-Fc: EVQVAESGGGLVKPGGSLRLSCAASGFTFSRYSMNWVRQAPGKCLEWVSSISSSGSYTYYADSVKGRFTISRDNAKNSLYLQMNSLRAEDTAVYYCVRERGKGAGMDVWGQGTTVTVSSGGGGSGGGGSGGGGSGGGGSNFMLTQPHSVSESPGKTVTISCTRSSGSIASNYVQWYQQRPGSSPTTVIYEDNQRPSGVPDRFSGSIDSSSNSASLTISGLKTEDEADYYCQSYDSSNRVFGCGTKLTVLGGGGSDKTHTCPPCPAPEFEGGPSVFLFPPKPKDTLMISRTPEVTCVVVDVSHEDPEVKFNWYVDGVEVHNAKTKPREEQYNSTYRVVSVLTVLHQDWLNGKEYKCKVSNKALPASIEKTISKAKGQPREPQVYTLPPCREEMTKNQVSLWCLVKGFYPSDIAVEWESNGQPENNYKTTPPVLDSDGSFFLYSKLTVDKSRWQQGNVFSCSVMHEALHNHYTQKSLSLSPGK
heavy: B1 chain 2
light: B1 chain 3
notes: KiH heterodimer

What follows are binders tested against T1, human CD3 (TCR/CD3 complex on the cell surface) (human, UniProt P07766 23-207; P04234 22-171; P09693 23-182) (assay: flow cytometry, Jurkat WT cells, 10 ug/mL).
T1 construct: whole, on cells; Native CD3 on human Pan-T cells or Jurkat wild-type cells; also called CD3 on Pan-T cells; CD3 on Jurkat WT cells
T1 sequence (P07766 23-207, chain 1 of 3): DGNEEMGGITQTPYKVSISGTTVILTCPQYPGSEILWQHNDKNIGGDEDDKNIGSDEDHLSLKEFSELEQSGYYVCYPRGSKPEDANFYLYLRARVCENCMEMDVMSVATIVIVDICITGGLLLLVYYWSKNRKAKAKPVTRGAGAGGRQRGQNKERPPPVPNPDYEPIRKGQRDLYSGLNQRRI
T1 sequence (P04234 22-171, chain 2 of 3): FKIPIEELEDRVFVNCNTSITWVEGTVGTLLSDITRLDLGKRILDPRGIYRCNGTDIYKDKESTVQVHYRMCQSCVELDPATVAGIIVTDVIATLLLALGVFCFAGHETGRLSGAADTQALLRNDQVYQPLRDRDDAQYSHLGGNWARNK
T1 sequence (P09693 23-182, chain 3 of 3): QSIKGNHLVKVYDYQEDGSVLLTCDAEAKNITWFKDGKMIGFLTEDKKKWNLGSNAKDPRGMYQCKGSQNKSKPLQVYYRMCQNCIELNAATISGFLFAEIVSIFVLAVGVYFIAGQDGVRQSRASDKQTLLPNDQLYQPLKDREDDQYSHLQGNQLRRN

gMFI [gMFI] | Binder
20400 | B1
69100 | B2
32000 | B3
59400 | B4
58600 | B5
55100 | B6
51000 | B7

What follows are binders tested against T1, human CD3 (TCR/CD3 complex on the cell …) (assay: flow cytometry, Jurkat WT gMFI over Jurkat KO gMFI, 1 ug/mL).

Jurkat WT/KO (Fold) [fold] | Binder
4 | B1
14 | B2
6.2 | B3
13.1 | B4
12.9 | B5
7.1 | B6
10.8 | B7

These binders were tested against T1, human CD3 (TCR/CD3 complex on the cell …) (assay: flow cytometry, Pan-T cells, 1 ug/mL).

% Positive [%] | gMFI [gMFI] | Binder
99.3 | 34700 | B1
99.8 | 566000 | B2
99.4 | 96000 | B3
99.7 | 330000 | B4
99.5 | 319000 | B5
99.7 | 79900 | B6
99.9 | 173000 | B7

Each binder was assayed against T1, human CD3 (TCR/CD3 complex on the cell …) (assay: flow cytometry, Jurkat WT gMFI over Jurkat KO gMFI, 10 ug/mL).

Jurkat WT/KO (Fold) [fold] | Binder
8.9 | B1
14.3 | B2
9.9 | B3
15 | B4
14.4 | B5
13.5 | B6
13.9 | B7

Each binder was assayed against T1, human CD3 (TCR/CD3 complex on the cell …) (assay: flow cytometry, Jurkat WT cells, 1 ug/mL).

gMFI [gMFI] | Binder
8830 | B1
67700 | B2
18900 | B3
50500 | B4
54500 | B5
24100 | B6
35200 | B7

The binders below were run against T1, human CD3 (TCR/CD3 complex on the cell …) (assay: flow cytometry, Pan-T cells, 10 ug/mL).

% Positive [%] | gMFI [gMFI] | Binder
99.4 | 166000 | B1
99.8 | 598000 | B2
99.7 | 249000 | B3
99.8 | 486000 | B4
99.9 | 462000 | B5
99.8 | 369000 | B6
99.9 | 362000 | B7

Reference: patent US20260167721A1 (ABLEXIS, published 2026)
